# Results taken from US20170269069.
# Tested on: recombinant histone H3, wild type
protein,measurement,value
"recombinant DIM1 (enzyme, UniProt P83877 1-142, looked up, species assumed, His tag) Thioredoxin-like protein 4A: MSYMLPHLHNGWQVDQAILSEEDRVVVIRFGHDWDPTCMKMDEVLYSIAEKVKNFAVIYLVDITEVPDFNKMYELYDPCTVMFFFRNKHIMIDLGTGNNNKINWAMEDKQEMVDIIETVYRGARKGRGLVVSPKDYSTKYRY","H3NT protease activity (in vitro H3NT cleavage assay, Western blot with the H3CT antibody)",only rMMP-9 possessed H3NT protease activity
"recombinant USP39 (enzyme, UniProt Q3TIX9 1-564, looked up, species assumed, His tag) Ubiquitin carboxyl-terminal hydrolase 39: MSSRSKRQSHGSTRGKRESESRGSSGRIKKERDREKEPEAASSRGSPVRVKREAEPAAREVPAPALPVVRVKREREADEDSEPEREVRAKNGRVDSEDRRSRHCPYLDTINRSVLDFDFEKLCSISLSHINAYACLVCGKYFQGRGLKSHAYIHSVQFSHHVFLNLHTLKFYCLPDNYEIIDSSLEDITYVLKPTFTKQQIANLDKQAKLSRAYDGTTYLPGIVGLNNIKANDYANAVLQALSNVPPLRNYFLEEDNYKNIKRPPGDIMFLLVQRFGELMRKLWNPRNFKAHVSPHEMLQAVVLCSKKTFQITKQGDGVDFLSWFLNALHSALGGTKKKKKTIVNDVFQGSMRIFTKKLPHPDLPAEEKEQLLHNDEYQETMVESTFMYLTLDLPTAPLYKDEKEQLIIPQVPLFNILAKFNGITEKEYKTYKENFLKRFQLTKLPPYLIFCIKRFTKNNFFVEKNPTIVNFPITNVDLREYLSEEVQAVHKNTTYDLIANIVHDGKPSEGSYRIHVLHHGTGKWYELQDLQVTDILPQMITLSEAYIQIWKRRDNDETNQQGA","H3NT protease activity (in vitro H3NT cleavage assay, Western blot with the H3CT antibody)",only rMMP-9 possessed H3NT protease activity
